These results are taken from patent US20070042345.

For the data set, the system named is F2C intracellular calcium ion indicator protein (GAP43 palmitoylation signal - ECFP - two alpha-spectrin calpain sensitive sequences - EYFP).

On to “purified µ-calpain (Calpain I, Calbiochem, California, U.S.A.)”, for which the “Western blot for fragmented F2C after incubation with purified µ-calpain in Ca-EGTA buffer” value is reported as “fragmented F2C signal was not detected (data not shown)”.
